{
  "source": "paper PMC7854685",
  "about": "“Histone Parylation factor 1 contributes to the inhibition of PARP1 by cancer drugs” (Nature Communications, 2021)",
  "key": {"[1]": {"biological_target": "PARP1 - Nuc165 complex (Alexa488-labelled PARP1 bound to a recombinant nucleosome with DNA linker ends of 7 and 11 base pairs) (UniProt P09874)", "sequence (P09874 whole entry, looked up, one chain of several)": "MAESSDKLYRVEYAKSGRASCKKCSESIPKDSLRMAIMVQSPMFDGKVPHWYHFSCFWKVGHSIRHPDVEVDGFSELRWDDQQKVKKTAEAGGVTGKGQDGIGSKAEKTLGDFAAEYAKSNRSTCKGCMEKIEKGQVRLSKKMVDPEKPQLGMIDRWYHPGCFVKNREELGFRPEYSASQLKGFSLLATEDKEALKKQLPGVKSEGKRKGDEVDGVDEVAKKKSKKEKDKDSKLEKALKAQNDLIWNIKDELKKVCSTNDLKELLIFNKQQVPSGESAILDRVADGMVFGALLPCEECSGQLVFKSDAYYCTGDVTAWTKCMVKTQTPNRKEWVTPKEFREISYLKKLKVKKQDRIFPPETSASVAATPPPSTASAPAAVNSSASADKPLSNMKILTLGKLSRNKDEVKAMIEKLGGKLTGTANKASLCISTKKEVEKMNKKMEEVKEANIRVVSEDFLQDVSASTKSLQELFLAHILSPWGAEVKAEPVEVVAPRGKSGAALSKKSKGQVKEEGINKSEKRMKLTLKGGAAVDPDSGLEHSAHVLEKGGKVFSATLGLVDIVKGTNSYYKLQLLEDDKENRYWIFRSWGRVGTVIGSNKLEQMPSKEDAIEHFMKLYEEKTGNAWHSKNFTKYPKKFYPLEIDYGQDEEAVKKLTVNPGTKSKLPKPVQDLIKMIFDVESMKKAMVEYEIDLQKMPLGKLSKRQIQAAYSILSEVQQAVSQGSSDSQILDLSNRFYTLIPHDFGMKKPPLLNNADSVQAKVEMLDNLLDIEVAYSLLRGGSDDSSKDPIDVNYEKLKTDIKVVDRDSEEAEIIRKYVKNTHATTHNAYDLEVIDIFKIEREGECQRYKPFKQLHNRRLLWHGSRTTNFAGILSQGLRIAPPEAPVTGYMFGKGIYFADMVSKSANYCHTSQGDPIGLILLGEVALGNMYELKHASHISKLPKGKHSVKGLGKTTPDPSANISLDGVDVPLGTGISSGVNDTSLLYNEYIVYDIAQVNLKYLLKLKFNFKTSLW", "experiment": "FRET or BRET; as a1 but with olaparib (1 uM): Alexa647-HPF1 titrated into Alexa488-PARP1 premixed with Nuc165 (20 nM) and olaparib; binding buffer"}, "[2]": {"biological_target": "PARP1 - Nuc165 complex (Alexa488-labelled PARP1 bound to a recombinant nucleosome with DNA linker ends of 7 and 11 base pairs) (UniProt P09874)", "experiment": "FRET or BRET; Alexa647-HPF1 (0.6-10,000 nM, […] dilutions) titrated into Alexa488-PARP1 premixed with Nuc165 (20 nM) and DMSO (control, no olaparib); binding buffer 50 mM Tris-HCl pH 8.0, 50 mM NaCl, 1 mM MgCl2, 0.1 mM EDTA, 0.01% IGEPAL; 384-well plate"}},
  "data": [
    {"binder": "Histone PARylation factor 1 (HPF1), labelled with Alexa647 (natural protein, Alexa647 C2 maleimide label (extent of labeling typically 50-100%)) LRKEVENHYKLSLPEDFYHFWKFCEELDPEKPSDSLSASLGLQLVGPYDILAGKHKTKKKSTGLNFNLHWRFYYDPPEFQTIIIGDNKTQYHMGYFRDSPDEFPVYVGINEAKKNCIIVPNGDNVFAAVKLFLTKKLREITDKKKINLLKNIDEKLTEAARELGYSLEQRTVKMKQRDKKVVTKTFHGAGLVVPVDKNDVGYRELPETDADLKRICKTIVEAASDEERLKAFAPIQEMMTFVQFANDECDYGMGLELGMDLFCYGSHYFHKVAGQLLPLAYNLLKRNLFAEIIEEHLANRSQENIDQLAA", "values": [
      {"measurement": "Kd", "setting": "[1]", "value": 229, "unit": "nM"},
      {"measurement": "Kd", "setting": "[2]", "value": 790, "unit": "nM"}
    ]}
  ]
}
